Measured values from PMC2150902 (The Journal of Cell Biology, 2001).

Biological target: the molecule itself
Assay: dynamic light scattering

B1: Δ9-Sar1A (hamster Sar1 lacking residues 2–9), GDP-bound form (domain or fragment)
chain: not shown
stoichiometry N: 2
